Experimental findings from paper PMC4823828, “A squalene synthase-like enzyme initiates production of tetraterpenoid hydrocarbons in Botryococcus braunii Race L” (Nature Communications, 2016) are described below.

Series [1] concerns the target T1, SlSS (Solanum lycopersicum, UniProt A0A3Q7ETS2).
T1 construct: gene SQS1; SlSS delta387-411: C-terminal transmembrane domain deleted, N-terminal 6xHis (pET28a), E. coli BL21(DE3), Ni-NTA; NM_001247787 assigned to SlSS by judgement
As to the kind of experiment: radioactive TLC assay. The format is biochemical. The note with it: labelled compound (3H), 10 μM, 2 mM NADPH, 20 mM MgCl2, MOPS pH 6.8, 37 °C.

The target in series [2] is T2, BSS (SS from race B) (Botryococcus braunii, UniProt Q9SDW9).
T2 construct: BSS delta399-461: C-terminal transmembrane domain deleted, N-terminal 6xHis (pET28a), E. coli BL21(DE3), Ni-NTA
T2 sequence (Q9SDW9 1-398): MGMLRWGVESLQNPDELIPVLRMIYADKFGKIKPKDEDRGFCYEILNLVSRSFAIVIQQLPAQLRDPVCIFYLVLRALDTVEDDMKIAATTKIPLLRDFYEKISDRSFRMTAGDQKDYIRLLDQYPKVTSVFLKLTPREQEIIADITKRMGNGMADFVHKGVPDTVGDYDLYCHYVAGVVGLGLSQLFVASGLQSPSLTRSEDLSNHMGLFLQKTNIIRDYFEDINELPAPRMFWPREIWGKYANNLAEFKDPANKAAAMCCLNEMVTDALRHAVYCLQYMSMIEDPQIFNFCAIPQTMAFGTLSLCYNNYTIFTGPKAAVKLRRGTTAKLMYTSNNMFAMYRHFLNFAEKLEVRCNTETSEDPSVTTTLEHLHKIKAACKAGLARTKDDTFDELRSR
The experiment in a line: radioactive TLC assay. The conditions noted are these: labelled compound (3H), 10 μM, 2 mM NADPH, 20 mM MgCl2, MOPS pH 6.8, 37 °C. The format is biochemical.

Series [3] concerns the target T3, SSL-2 (Botryococcus braunii, UniProt G0Y287).
T3 construct: SSL-2 delta392-465: C-terminal transmembrane domain deleted, N-terminal 6xHis (pET28a), E. coli BL21(DE3), Ni-NTA
The experiment in a line: radioactive TLC assay. The note with it: labelled compound (3H), 10 μM; 2 mM NADPH, 20 mM MgCl2, MOPS pH 6.8, 37 °C; product lycopaoctaene (minor). The format is biochemical.

In series [4] the target is T4, LOS (lycopaoctaene synthase) (Botryococcus braunii, UniProt A0A142ZC57).
T4 construct: LOS delta391-444: C-terminal transmembrane domain deleted from 444-residue protein, N-terminal 6xHis (pET28a), E. coli BL21(DE3), Ni-NTA
As to the kind of experiment: GC-MS of lycopaoctaene product from GGPP. The format is biochemical. The conditions noted are these: 20 nM squalestatin; GGPP substrate, NADPH, Mg2+, pH 6.8, 37 °C.

The target of series [5] is T5, LSS (SS from race L) (Botryococcus braunii, UniProt A0A144YEA5).
T5 construct: LSS delta399-462: C-terminal transmembrane domain deleted, N-terminal 6xHis (pET28a), E. coli BL21(DE3), Ni-NTA
T5 sequence (A0A144YEA5 1-398): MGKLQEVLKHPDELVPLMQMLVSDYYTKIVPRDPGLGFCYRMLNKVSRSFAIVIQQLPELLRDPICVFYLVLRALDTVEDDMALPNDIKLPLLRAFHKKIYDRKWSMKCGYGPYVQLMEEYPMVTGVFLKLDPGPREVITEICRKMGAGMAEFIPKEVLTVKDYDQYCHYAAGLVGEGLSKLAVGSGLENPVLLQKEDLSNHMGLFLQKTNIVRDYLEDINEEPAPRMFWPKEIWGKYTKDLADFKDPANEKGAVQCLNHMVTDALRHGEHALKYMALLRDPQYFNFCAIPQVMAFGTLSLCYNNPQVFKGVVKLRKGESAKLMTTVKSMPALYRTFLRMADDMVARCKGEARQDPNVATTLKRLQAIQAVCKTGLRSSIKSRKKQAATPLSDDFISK
The experiment in a line: GC-MS product assay; radioactive TLC assay. The format is biochemical. The conditions noted are these: 10 μM substrate in radioactive assay; 2 mM NADPH, 20 mM MgCl2, MOPS pH 6.8, 37 °C; product squalene.

Substrate in series [6]: C/C(=C\COP(=O)(O)OP(=O)(O)O)CCC[C@H](C)CCC[C@H](C)CCCC(C)C
The experiment in a line: radioactive steady-state assay, n-hexane extraction, TLC, scintillation counting. The note with it: labelled compound (3H), 2 mM NADPH, 20 mM MgCl2, MOPS pH 6.8, 37 °C, 100 nM enzyme. In kind it is biochemical, Botryococcus braunii. The text has this:
(§1) radioactive steady-state assay, n-hexane extraction, TLC, scintillation counting on LOS (lycopaoctaene synthase)

Substrate in series [7]: CC(C)=CCC/C(C)=C/CC/C(C)=C/CC/C(C)=C/COP(=O)(O)OP(=O)(O)O
The description is as above. The note with it: labelled compound (3H), 2 mM NADPH, 20 mM MgCl2, MOPS pH 6.8, 37 °C, 100 nM enzyme. In kind it is biochemical, Botryococcus braunii.
Text: as §1

Substrate in series [8]: CC(C)=CCC/C(C)=C/CC/C(C)=C/CO[P@@](=O)(O)OP(=O)(O)O
The description is as above. The format is biochemical, Botryococcus braunii. The conditions noted are these: labelled compound (3H), 2 mM NADPH, 20 mM MgCl2, MOPS pH 6.8, 37 °C, 100 nM enzyme.
Text: as §1

T1 sequence (A0A3Q7ETS2 entry or part of it): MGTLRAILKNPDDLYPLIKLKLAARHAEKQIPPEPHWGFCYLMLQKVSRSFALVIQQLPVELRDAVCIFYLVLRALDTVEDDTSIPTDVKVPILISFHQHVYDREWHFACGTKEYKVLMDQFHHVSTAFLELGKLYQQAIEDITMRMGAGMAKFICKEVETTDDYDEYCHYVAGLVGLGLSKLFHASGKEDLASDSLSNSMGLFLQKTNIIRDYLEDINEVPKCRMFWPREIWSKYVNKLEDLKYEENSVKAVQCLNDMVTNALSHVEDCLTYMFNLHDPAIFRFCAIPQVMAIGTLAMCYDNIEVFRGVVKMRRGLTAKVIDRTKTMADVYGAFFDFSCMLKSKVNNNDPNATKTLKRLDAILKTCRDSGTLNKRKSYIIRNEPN
T3 sequence (G0Y287 1-391): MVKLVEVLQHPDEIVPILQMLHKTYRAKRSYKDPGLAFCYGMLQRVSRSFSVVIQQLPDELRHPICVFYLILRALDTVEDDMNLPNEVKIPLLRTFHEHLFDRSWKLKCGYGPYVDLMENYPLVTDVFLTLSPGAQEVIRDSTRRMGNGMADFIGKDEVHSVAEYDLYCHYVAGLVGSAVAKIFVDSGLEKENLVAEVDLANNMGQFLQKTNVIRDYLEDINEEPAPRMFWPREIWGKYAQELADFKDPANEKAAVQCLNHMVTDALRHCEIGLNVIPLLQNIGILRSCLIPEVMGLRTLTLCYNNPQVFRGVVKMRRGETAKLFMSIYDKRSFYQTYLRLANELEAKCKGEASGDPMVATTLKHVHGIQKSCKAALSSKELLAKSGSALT

`C/C(=C\COP(=O)(O)OP(=O)(O)O)CCC[C@H](C)CCC[C@H](C)CCCC(C)C` [PPP]: the “radioactive TLC assay” value in series [1] (product lycopadiene (minute)) is “BSS and SlSS also using PPP to produce minute amounts of lycopadiene”; in series [2] (product lycopadiene (minute)), “BSS and SlSS also using PPP to produce minute amounts of lycopadiene”.

For `CC(C)=CCC/C(C)=C/CC/C(C)=C/CC/C(C)=C/COP(=O)(O)OP(=O)(O)O` [GGPP], in series [3], the “radioactive TLC assay” value was “allowing SSL-2 and SSL-1 plus SSL-2 to use GGPP to generate minor amounts of lycopaoctaene”.

For `C=C(CC[C@]12O[C@H](C(=O)O)[C@@](O)(C(=O)O)[C@](C(=O)O)(O1)[C@H](OC(=O)/C=C/[C@@H](C)C[C@@H](C)CC)[C@H]2O)[C@@H](OC(C)=O)[C@H](C)Cc1ccccc1` [squalestatin], the “strong inhibition at 20 nM” value in series [4] is “LOS is strongly inhibited by squalestatin (Fig. 5c), a potent SS inhibitor”.

For `CC(C)=CCC/C(C)=C/CC/C(C)=C/COP(=O)(O)OP(=O)(O)O` [FPP], the “radioactive TLC assay” value in series [1] (product squalene) and in series [2] (product squalene) was “the typical SS enzymes display SS activity as their main catalytic function” throughout. Moreover, the “GC-MS product assay; radioactive TLC assay” value in series [5] was “LSS was shown to yield squalene as its sole product in an in vitro assay”.

B1: LOS (lycopaoctaene synthase) (Botryococcus braunii) (protein)
chain: MKYTDFLAHPDEIIPTIRMMYADYRLKNMEIKDPSVRFCYNMLNRVSRSFAMVIQQLPVELRDATCVFYLILRALDTVEDDMAIPKEVKIPMLRTFHEHLSDRSWKIKCGYGPYVDLMDNYPLVTDVYLRFDEGTKAVIKDITRRMGNGMADFIDLDEVLTIPQYDLYCHYVAGLCGIGMCKLFVDSGLEKEDLVAEEDLANQMGLFLQKNNIVRDYLEDINELPAPRMFWPKEIWGNYAKQLDEFKDPKNLDKAMLCLNHMVTDALRHCEVGLRSLSLLHNPNILRAVLIPQVMGVRTLTLVYNNPEVFRGVVKMRRGETAKIFVTTTSKLSFFRTYLQFANEMEQKCLTEAKNDPMVALTLKRVQGVQAACRAAIVKAEIAEGAKGPS
notes: LOS delta391-444: C-terminal transmembrane domain deleted from 444-residue protein, N-terminal 6xHis (pET28a), E. coli BL21(DE3), Ni-NTA
Turning to B1, the figures for the Km in series [6], in series [7] and in series [8] were 110 ± 10 µM, 70 ± 20 µM and 130 ± 20 µM, respectively. Also, the kcat (usually the number of substrate molecules converted per active site and unit of time at saturation) turned out to be 0.00116 s⁻¹ in series [6], 0.0114 s⁻¹ in series [7] and 0.0205 s⁻¹ in series [8]. Further, the kcat/Km (as a rule, the second-order rate constant that governs catalysis at low substrate concentration) in series [6] was 10.3 M⁻¹ s⁻¹; in series [7], 165 M⁻¹ s⁻¹; in series [8], 162 M⁻¹ s⁻¹.
